Results as given in publication PMC12873404.

Target: BTN2A2-His tag protein (without Fc tag) (human) (UniProt Q8WVV5)
Assay: MST

Work on “recombinant CD45RO-Fc protein (from UniProt P08575-4 26-1145) (Fc fusion)” yielded a Kd of 63.5 nM.
